Assay results published in publication PMC4754659, “Differential regulation of taurine biosynthesis in rainbow trout and Japanese flounder” (Scientific Reports, 2016).

How the values were obtained:
[1] = substrate: N[C@@H](CS)C(=O)O; assay: HPLC of CSA product (OPA derivatised); format: biochemical, Oncorhynchus mykiss; details: MES 62.5 mM (pH 6.1 given for tissue buffer), 0.3 mM ferrous sulfate, 62.5 μM bathocuproine disulfonate, O2 (air), 37 °C, fit at 0–4 mM, substrate inhibition above 4 mM
[2] = substrate: N[C@@H](CS)C(=O)O; assay: HPLC of CSA product (OPA derivatised); format: biochemical, Paralichthys olivaceus; details: MES 62.5 mM (pH 6.1 given for tissue buffer), 0.3 mM ferrous sulfate, 62.5 μM bathocuproine disulfonate, O2 (air), 37 °C, fit at 0–4 mM, substrate inhibition above 4 mM
[3] = substrate: N[C@@H](CS(=O)O)C(=O)O; assay: HPLC of hypotaurine product (OPA derivatised); format: biochemical, Oncorhynchus mykiss; details: 100 mM NaH2PO4, 10 μM PLP, 37 °C, 10 min, CSA 0–15 mM, pH not given for assay (enzyme buffer pH 7.4)
[4] = substrate: N[C@@H](CS(=O)O)C(=O)O; assay: HPLC of hypotaurine product (OPA derivatised); format: biochemical, Paralichthys olivaceus; details: 100 mM NaH2PO4, 10 μM PLP, 37 °C, 10 min, CSA 0–15 mM, pH not given for assay (enzyme buffer pH 7.4)

Protein | Km [3] | kcat [3] | Km [4] | kcat [4] | other results
rainbow trout CDO (Oncorhynchus mykiss) (protein, full-length ORF (200 aa printed, ORF 600 bp), N-terminal 6xHis tag, pET-28a, E. coli BL21(DE3), HisTrap and Superdex 200, iron supplemented; partly Cys-Tyr crosslinked) MDQTELLKPETLDDLIKVLHKIFESDNINVEEVQNIMEAYDSNPQEWMKFAKFDQFRYTRNLVDEGNGKFNLMILCWGEGHGSSIHDHTDSHCFMKLLQGQLKETLFEWPDKKTCNMVQKSQRILQTNQCAYINDSFGLHRVENASHTECSASLHLYSPPFKTCQTFDQRTGHKNTVKMTFWSKFGERTPFETTVSQENN |  |  |  |  | Km [1]: 790 ± 90 µM; kcat [1]: 16.72 ± 0.67 s⁻¹
Japanese flounder CDO (Paralichthys olivaceus) (protein, full-length ORF (201 aa printed, ORF 603 bp), N-terminal 6xHis tag, pET-28a, E. coli BL21(DE3), HisTrap and Superdex 200, iron supplemented; partly Cys-Tyr crosslinked) MEHTELLKPETLDELIKTLHDIFDSDCINVEEVQGVMESYESKPQEWMKYAKFDQYRYTRNLVDEGNGKFNLMILCWGEGHGSSIHDHTDSHCFMKLLQGQLKETLFEWPDCQSHGDMVQRSQRILQENKVAYINDSLGLHRVENVSHTECAVSLHLYSPPFQACQTFDQRTGHRNTVKMTFWSKYGERTPFETTVSQENN |  |  |  |  | Km [2]: 1230 ± 150 µM; kcat [2]: 29.36 ± 1.52 s⁻¹
rainbow trout CSD (Oncorhynchus mykiss) (protein, full-length ORF (525 aa, ORF 1575 bp), N-terminal 6xHis tag, pET-28a, E. coli BL21(DE3), HisTrap and Superdex 200) MSHLPRFWNLGWSSFLDWWSNQSVVSEQGPSPLYGQQEMNEPLLDNSEGQLFLTEAFKVIVEEVLCKGTDVKEKVCEWREPEELAALLDLELRENGEPQHQLLQRIRDVAKYSVKTNHPRFFNQLFAGVDYHALTGRFLTEALNTSQYTYEVAPVFVLMEDEVLSKLRSLVGWAEGDGIFCPGGTMSNMYAMNVARYRAFPEVKLKGMWSLPRLAVFTSQQSHYSVMKAAAFQGIGTENVFKVKVDDRGCMIPEDLGETIELAKSQGAVPFFVHATSGTTVQGAFDPLEPIADICDRQGLWMHVDAAWGGSVLFSKEHKHLMRGVERADSVTWNPHKMMLTGLQCSAILLKDTTHLLKHCHSADAKYLFQQDKFYDTSLDTGDKSIQCGRKVDCLKLWLMWKAVGSKGLEERVDRAFTHTRYLVEEMKRREGFELIGKPLFVNVCFWFIPPSLRGKENSPDYNDRLSKVAPVIKERMMKQGTMMLGYQPQGGRVNFFRMIVISPQLSHQDMTFCLNEIERLGSDL | 2300 ± 240 µM | 4.72 ± 0.36 s⁻¹ |  |  | 
Japanese flounder CSD (Paralichthys olivaceus) (protein, full-length ORF (487 aa printed, ORF 1461 bp), N-terminal 6xHis tag, pET-28a, E. coli BL21(DE3), HisTrap and Superdex 200) MNEPLLDNSEGQLFLTEAFKVIVEEVLCKGTDVKEKVCEWREPEELAALLDLELRENGEPQHQLLQRIRDVAKYSVKTSHPRFFNQQFAGVDYHSLAGRFLTESLNTNLFTYEVAPVFVLMETEVLRGLRQLVGWTEGDGIFCPGGSTSNMYAMNLARYRLFPEVKTQGLWGLPRLTVFTSQESHYSVKKGAGFLGLGTDNVILVKVDDGGRMIPSDLDEKITLTKSQGAVPFLVSCTAGTTVQGAFDPLDHIADVCEKHKLWLHVDAAWGGSVLFSKQHRHLMKGVDRANSVAWNPHKMLVAGLQCSALLLKDTTNLLKQCHCASATYLFQQDKFYDVNLDIGDKSLQCSRKVDCLKLWLMWKAVGSNGLAERVDKAFFHVRYLVEQMKKREGFHLLGQPEFVNVCFWYIPPSLRGKEGDSDYQDRLAKVAPVIKERMVKQGTMMVGYQPLANRVNFFRVIIFSPLISQRDIDFFLDEIERLGNDL |  |  | 3450 ± 380 µM | 1.52 ± 0.13 s⁻¹ | 
rainbow trout CSD (Oncorhynchus mykiss; S146N/Y148F) (protein, full-length ORF (525 aa, ORF 1575 bp), N-terminal 6xHis tag, pET-28a, E. coli BL21(DE3), HisTrap and Superdex 200) MSHLPRFWNLGWSSFLDWWSNQSVVSEQGPSPLYGQQEMNEPLLDNSEGQLFLTEAFKVIVEEVLCKGTDVKEKVCEWREPEELAALLDLELRENGEPQHQLLQRIRDVAKYSVKTNHPRFFNQLFAGVDYHALTGRFLTEALNTNQFTYEVAPVFVLMEDEVLSKLRSLVGWAEGDGIFCPGGTMSNMYAMNVARYRAFPEVKLKGMWSLPRLAVFTSQQSHYSVMKAAAFQGIGTENVFKVKVDDRGCMIPEDLGETIELAKSQGAVPFFVHATSGTTVQGAFDPLEPIADICDRQGLWMHVDAAWGGSVLFSKEHKHLMRGVERADSVTWNPHKMMLTGLQCSAILLKDTTHLLKHCHSADAKYLFQQDKFYDTSLDTGDKSIQCGRKVDCLKLWLMWKAVGSKGLEERVDRAFTHTRYLVEEMKRREGFELIGKPLFVNVCFWFIPPSLRGKENSPDYNDRLSKVAPVIKERMMKQGTMMLGYQPQGGRVNFFRMIVISPQLSHQDMTFCLNEIERLGSDL | 2730 ± 270 µM | 1.86 ± 0.07 s⁻¹ |  |  | 
Japanese flounder CSD (Paralichthys olivaceus; F110Y/N108S) (protein, full-length ORF (487 aa printed, ORF 1461 bp), N-terminal 6xHis tag, pET-28a, E. coli BL21(DE3), HisTrap and Superdex 200) MNEPLLDNSEGQLFLTEAFKVIVEEVLCKGTDVKEKVCEWREPEELAALLDLELRENGEPQHQLLQRIRDVAKYSVKTSHPRFFNQQFAGVDYHSLAGRFLTESLNTSLYTYEVAPVFVLMETEVLRGLRQLVGWTEGDGIFCPGGSTSNMYAMNLARYRLFPEVKTQGLWGLPRLTVFTSQESHYSVKKGAGFLGLGTDNVILVKVDDGGRMIPSDLDEKITLTKSQGAVPFLVSCTAGTTVQGAFDPLDHIADVCEKHKLWLHVDAAWGGSVLFSKQHRHLMKGVDRANSVAWNPHKMLVAGLQCSALLLKDTTNLLKQCHCASATYLFQQDKFYDVNLDIGDKSLQCSRKVDCLKLWLMWKAVGSNGLAERVDKAFFHVRYLVEQMKKREGFHLLGQPEFVNVCFWYIPPSLRGKEGDSDYQDRLAKVAPVIKERMVKQGTMMVGYQPLANRVNFFRVIIFSPLISQRDIDFFLDEIERLGNDL |  |  | 1830 ± 170 µM | 6.26 ± 0.20 s⁻¹ | 
